Results taken from patent publication US20180186871A1 (SINGAPORE HEALTH SERVICES PTE, published 2018).
Changes are numbered by the printed parent chain.

T1: human IL-11 (human, UniProt P20809 22-199)
T1 sequence (looked up): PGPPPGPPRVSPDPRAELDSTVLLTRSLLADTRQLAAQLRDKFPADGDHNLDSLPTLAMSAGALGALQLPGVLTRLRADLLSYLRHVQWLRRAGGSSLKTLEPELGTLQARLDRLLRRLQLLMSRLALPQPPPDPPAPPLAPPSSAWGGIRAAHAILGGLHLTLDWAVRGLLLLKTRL

B1: YU100-E06 (scFv)
scFv: QVQLVESGGGVVQPGRSLRLSCAASGFTFSSYGMHWVRQAPGKGLEWVAVISYDGSNKYYADSVKGRFTISRDNSKNTLYLQMNSLRAEDTAVYYCAKIGATDPLDYWGQGTLVTVSSGSASAPKLEEGEFSEARVQSALTQPASVSGFPEQSITISCTGTSSDVGGYDYVSWYQQHPGKAPKLMIYDVTNRPSGVSNRFSGSKSGNTASLTISGLQPEDEADYYCSSYTSNTTWVFGGGTKLTVLRQPKAAPSVTLFPPSS
B2: YU100-E05 (scFv)
scFv: EVQLVQSGGGVVQPGRSLRLSCAASGFTFSSYGMHWVRQAPGKGLEWVAVISYDGSNKYYADSVKGRFTISRDNSKNTLYLQMNSLRAEDTAVYYCAKIGATDPLDYWGQGTLVTVSSGSASAPKLEEGEFSEARVQAVLTQPRSVSGSPGQSVTISCTGTSSDVGGYNYVSWYQQHPGKAPKLMIYDVSKRPSGVPDRFSGSKSGNTASLTISGLQAEDEADYYCCSYAGSYSWVFGGGTKLTVLGQPKAAPSVTLFPPSS
B3: YU100-E04 (scFv)
scFv: B2 scFv with E1Q, V5Q, A138S, V139A, A181T, S190T, R199H, Y233H, S234I
B4: YU100-D11 (scFv)
scFv: B2 scFv with E1Q, A138S, V139A, D164N, D223N, C227A, S232N, S234N
B5: YU100-D05 (scFv)
scFv: QVQLQQSGGGVVQPGRSLRLSCAASGFTFSSYGMHWVRQAPGKGLEWVAVISYDGSNKYYADSVKGRFTISRDNSKNTLYLQMNSLRAEDTAVYYCAKIGATDPLDYWGQGTLVTVSSGSASAPKLEEGEFSEARVQSALTQPASVSGSPGQLITISCTGTNSDVGGYNYVSWYQQHPGKAPKLMIYDVSNRPSGVSNRFSGSKSGNTASLTISGLQAEDEADYYCCSYAGSYTWVFGGGTKLTVLGQPKAAPSVTLFPPSS
B6: YU100-D02 (scFv)
scFv: B2 scFv with E1Q, Q3R, A138S, V139A, S163G, G167T, Y187F, C227N, S234T
B7: YU112-E07 (scFv)
scFv: QVQLVQSGGGVVQPGRSLRLSCAASGFTFGSYGMHWVRQAPGKGLEWVAVISYDGSNKYYADSVKGRFTISRDNSKNTLYLQMNSLRAEDTAVYYCAKGSYYFDYWGQGTLVTVSSGSASAPKLEEGEFSEARVEIVMTQSPDSLAVSLGERATINCKSSQSVNSAYLAWYQHKPGQPPRLLIYGASRRVTGVPDRFSGSGSGTDFTLTISSLQPEDFATYYCQQSYSDPRWTFGQGTKVEIK
B8: YU100-E01 (scFv)
scFv: QVQLQQSGGGVVQPGRSLRLSCAASGFTFSSYGMHWVRQAPGKGLEWVAVISYDGSNKYYADSVKGRFTISRDNSKNTLYLQMNSLRAEDTAVYYCAKIGATDPLDYWGQGTLVTVSSGSASAPKLEEGEFSEARVQSALTQPASVSGSPGQSITISCTGTSNDIGAYNYVSWYQQHPGKAPKLLIYDVNNRPSGVSDRFSGSKSGNTASLTISGLQAEDEADYYCCSYAGSYSWVFGGGTKLTVLGQPKANPTVTLFPPSS
B9: YU45-C11/A10 (Fc fusion)
VH: EVQLLESGGGVVQPGRSLRLSCAASGFTFSSYAMHWVRQAPGEGLEWVAVISYDGSNKYYADSVKGRFTISRDNAKDSLYLQMNSLRDEDTAVYYCARRGYFDYWGQGTLVTVSS
VL: QSALTQPASVSGSPGQSITISCTGTSSDVGGYNYVSWYQQHPGKAPKLMIYDVSNRPSGVSNRFSGSKSGNTASLTISGLQAEDEADYYCSSYTSSSTVVFGGGTKLTVL
notes: tested as scFv-Fc (human IgG1); also called #6
B10: YU45-H3 (Fc fusion)
VH: EVQLVESGGGVVQPGRSLRLSCAASGFTFSSYAMHWVRQAPGKGLEWVAVISYDGSNKYYADSVKGRLTISRDNSKNTLYLQMNSLRAEDTAVYYCARMVNLYYGDAFDIWGQGTMVTVSS
VL: B9 VL
notes: tested as scFv-Fc (human IgG1); also called #25
B11: YU46-D3 (Fc fusion, not shown: a dimerising Fc or GST; small tags and cut ends)
VH: B9 VH with E43K, I70S, A75S, D77N, S78T, D88A, R99S, Y101V, F102L
VL: QSALTQPASVSGSPGQSITISCTGTSSDVGNYKYVSWYQQHPGKAPKLMIYDVSNRPSGVSNRFSGSKSGNTASLTISGLQAEDEADYYCSSYTSSSTLVVFGGGTKLTVL
notes: tested as scFv-Fc (human IgG1); also called #56
B12: YU45-H11/D12 (Fc fusion)
VH: EVQLLESGGGVVQPGRSRRLSCAASGFTFSSYGMHWVRQAPGKGLEWVAVISYDGSNKYYADSVKGRFTISRDNSKNTLYLQMNSLRAEDTAVYYCAKLYSGSSNFDYWGQGTLVTVSS
VL: B9 VL with V99W
notes: tested as scFv-Fc (human IgG1); also called #9
B13: YU45-H10 (Fc fusion)
VH: B12 VH with T28S, F29L, S30N
VL: B9 VL with V99W
notes: tested as scFv-Fc (human IgG1); also called #22
B14: YU46-A8 (Fc fusion, not shown: a dimerising Fc or GST; small tags and cut ends)
VH: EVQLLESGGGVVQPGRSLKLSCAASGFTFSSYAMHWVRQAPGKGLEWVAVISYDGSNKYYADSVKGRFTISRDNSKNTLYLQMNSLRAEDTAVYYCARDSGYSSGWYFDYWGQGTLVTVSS
VL: B11 VL with A8R, N31G, K33E, K47R, M49L, I77V, S91N, S97G
notes: tested as scFv-Fc (human IgG1); also called #45
B15: YU45-D9/D3 (Fc fusion)
VH: EVQLVESGGGVVQPGRSLRLSCAASGFTFSSYGMHWVRQAPGKGLEWVAVISYDGSNKYYADSVKGRFTISRDNSKNTLYLQMNSLRAEDTAVYYCARLHFSQYFSTIDAFDIWGQGTMVTISS
VL: QSVLTQPPSVSAAPGQEVTISCSGSSSNIGNNYVSWYQHLPGTAPKLLIYDNTERPSGIPDRFSGSRSGTSVTLGITGLQTGDEADYYCGTWDSSLSGGVFGGGTKLTVL
notes: tested as scFv-Fc (human IgG1); also called #31
B16: YU46-B6 (Fc fusion, not shown: a dimerising Fc or GST; small tags and cut ends)
VH: QVQLVQSGAEVKKPGASVKVSCKASGYTFTSYGISWVRQAPGQGLEWMGWISAYNGNTNYAQKLQGRVTMTTDTSTSTAYMELRSLRSDDTAVYYCARVVAAARSYYYYMDVWGKGTTVTVSS
VL: SSELTQDPAVSVALGQTVRITCQGDSLRGYYATWYQQKPGQAPVVVMYGNNNRPSGIPDRFSGSSSGNTASLTITGAQAEDEADYYCDSRGRSGDHWLFGGGTKLTVL
notes: tested as scFv-Fc (human IgG1); also called #47
B17: YU45-G1 (Fc fusion)
VH: EVQLLESGGGVVQPGRSLRLSCAASGFTFSSYGMHWVRQAPGKGLEWVAVISYDGSNKYYADSVKGRFTISRDNSKNTLYLQMNSLRAEDTAVYYCAKLSGPNGVDYWGQGTLVTVSS
VL: QSALTQPRSVSGSPGQSVTISCTGTSSDVGGYNYVSWYQQHPGKAPKLMIYDVSKRPSGVPDRFSGSKSGNTASLTVSGLQAEDEADYYCCSYAGSYTFVFGGGTKLTVL
notes: tested as scFv-Fc (human IgG1); also called #11
B18: YU46-E3 (Fc fusion, not shown: a dimerising Fc or GST; small tags and cut ends)
VH: B17 VH with E1Q, L5V, K98R, L99I, S100G, P102Y, N103D, G104D, V105F
VL: B9 VL with V99W
notes: tested as scFv-Fc (human IgG1); also called #50
B19: YU45-A8/C6 (Fc fusion)
VH: B17 VH with E1Q, L5V
VL: B9 VL with S54G, S96G, V99W
notes: tested as scFv-Fc (human IgG1); also called #27
B20: YU45-B6 (Fc fusion)
VH: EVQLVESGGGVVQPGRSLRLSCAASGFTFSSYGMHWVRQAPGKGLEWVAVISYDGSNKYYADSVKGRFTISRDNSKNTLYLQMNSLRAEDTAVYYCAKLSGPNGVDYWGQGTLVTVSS
VL: B17 VL with S27R, K44E, Y51F, V77I, G95D, S96Y, F99W, L107V
notes: tested as scFv-Fc (human IgG1); also called #36
B21: YU46-G8 (Fc fusion, not shown: a dimerising Fc or GST; small tags and cut ends)
VH: EVQLVESGGGVVQPGRSLRLSCAASGFSLGSYGMHWVRQAPGKGLEWVAVISYDGSNKYYADSVKGRFTISRDNSKNTLYLQMNSLRAEDTAVYYCAKGSYYFDYWGQGTLVTVSS
VL: DIQMTQSPSSLSASVGDRVTITCRASQGSSSYLAWYQQKPGKAPKLLIYAASSLQSGVPSRFSGSGSGTDFTLTISSLQPEDFATYYCQQSYSTPLYTFGQGTKLEIK
notes: tested as scFv-Fc (human IgG1); also called #54
B22: YU45-G7 (Fc fusion)
VH: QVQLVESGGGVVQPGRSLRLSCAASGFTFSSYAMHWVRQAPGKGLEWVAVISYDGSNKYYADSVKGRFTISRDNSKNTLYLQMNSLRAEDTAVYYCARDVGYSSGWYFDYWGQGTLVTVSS
VL: QSVLTQPPSVSAAPGRTVTISCSGSYSNVGSNLVSWYQQLPGTAPKLVIYEDDKRLSGIPDRFSGSKSGTSASLAISGLQSEDEADYYCAAWDDSLKGHVFGGGTQLTVL
notes: tested as scFv-Fc (human IgG1); also called #33

molecular target: T1, human IL-11; assay: cell-based or functional assay

How did the “MMP2 production (ng/ml), TGFB1-stimulated human atrial fibroblasts, Experiment 1 (NEG 42.7, POS 70.2)” value (“MMP2 production (ng/ml) … (NEG 42.7, POS 70.2)” for short) turn out when B1 was run?
The value was 54.1 ng/mL.

What about the “MMP2 production (ng/ml), TGFB1-stimulated human atrial fibroblasts, Experiment 2 (NEG 36.2, POS 62.3)” value (“MMP2 production (ng/ml) … (NEG 36.2, POS 62.3)” for short) of the same binder?
The value was 48.2 ng/mL.

Which results are given for B2?
MMP2 production (ng/ml), TGFB1-stimulated human atrial fibroblasts, Experiment 1 (NEG 42.7, POS 70.2): 56.3 ng/mL; MMP2 production (ng/ml), TGFB1-stimulated human atrial fibroblasts, Experiment 2 (NEG 36.2, POS 62.3): 50.2 ng/mL

B3 was tested. Which “MMP2 production (ng/ml) … (NEG 42.7, POS 70.2)” value did it give?
Its value is 50 ng/mL.

And the “MMP2 production (ng/ml) … (NEG 36.2, POS 62.3)” value?
Its value is 43.5 ng/mL.

B4 was tested. Which “MMP2 production (ng/ml) … (NEG 42.7, POS 70.2)” value did it give?
Its value is 51.2 ng/mL.

What about the “MMP2 production (ng/ml) … (NEG 36.2, POS 62.3)” value of the same binder?
Its value is 47.2 ng/mL.

For B5, which “MMP2 production (ng/ml) … (NEG 42.7, POS 70.2)” value is on record?
Its value is 53.3 ng/mL.

And the “MMP2 production (ng/ml) … (NEG 36.2, POS 62.3)” value?
The value was 48.8 ng/mL.

Which results are given for B6?
MMP2 production (ng/ml), TGFB1-stimulated human atrial fibroblasts, Experiment 1 (NEG 42.7, POS 70.2): 49.6 ng/mL; MMP2 production (ng/ml), TGFB1-stimulated human atrial fibroblasts, Experiment 2 (NEG 36.2, POS 62.3): 42.2 ng/mL

With B7 as the binder, how does the “MMP2 production (ng/ml) … (NEG 42.7, POS 70.2)” value read?
Its value is 53.5 ng/mL.

And the “MMP2 production (ng/ml) … (NEG 36.2, POS 62.3)” value?
The value was 49.1 ng/mL.

With B8 as the binder, how does the “MMP2 production (ng/ml) … (NEG 42.7, POS 70.2)” value read?
Its value is 59.3 ng/mL.

And the “MMP2 production (ng/ml) … (NEG 36.2, POS 62.3)” value?
The value was 51.8 ng/mL.

molecular target: T1, human IL-11; assay: EC50 from the indirect ELISA titrations of FIGS. 28A-28F on plate-coated recombinant human IL-11 (five-parameter fit), ng/ml is the concentration unit of FIG. 28 and paragraph 502

How did the EC50 turn out when B9 was run?
Its EC50 is 0.0677 µg/mL.

B10 was tested. Which EC50 did it give?
The EC50 was 0.126 µg/mL.

For B11, which EC50 is on record?
The EC50 was 0.655 µg/mL.

B12 was tested. Which EC50 did it give?
The EC50 was 0.0146 µg/mL.

Which EC50 does the source give for B13 here?
Its EC50 is 0.0248 µg/mL.

With B14 as the binder, how does the EC50 read?
The EC50 was 0.351 µg/mL.

B15 was tested. Which EC50 did it give?
Its EC50 is 0.71 µg/mL.

Which EC50 does the source give for B16 here?
Its EC50 is 0.222 µg/mL.

How did the EC50 turn out when B17 was run?
Its EC50 is 0.0428 µg/mL.

For B18, which EC50 is on record?
The EC50 was 0.707 µg/mL.

Which EC50 does the source give for B19 here?
The EC50 was 0.71 µg/mL.

With B20 as the binder, how does the EC50 read?
Its EC50 is 4.98 µg/mL.

Which EC50 does the source give for B21 here?
The EC50 was 0.0323 µg/mL.

Which EC50 does the source give for B22 here?
The EC50 was 0.0101 µg/mL.
